Measured values as given in patent US20240279332A1 (Amgen, published 2024).
Where a chain is given by its changes, count along the chain named.

T1: cyno TREM-1 on cells (cynomolgus monkey, UniProt A0A2K5VHG8 21-233)
T1 sequence: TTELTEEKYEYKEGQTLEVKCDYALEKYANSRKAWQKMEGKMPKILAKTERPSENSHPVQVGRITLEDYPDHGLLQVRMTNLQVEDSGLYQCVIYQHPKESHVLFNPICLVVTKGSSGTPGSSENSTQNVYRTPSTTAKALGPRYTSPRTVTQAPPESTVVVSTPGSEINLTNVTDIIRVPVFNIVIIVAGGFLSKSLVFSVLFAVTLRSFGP

B1: 50A12 (antibody, V domains shown)
VH: EVQLVESGGGLVQPGGSLRLSCAASGFTFSSYWMSWVRQAPGKGLEWVANIKQDGSEEYYVDSVKGRFTISRDNAKNSLFLQMNSLRAEDTAVYYCARDYGDSFDYWGQGTLVTVSS
VL: DIQMTQSPSSVSASVGDRVTITCRASQGIRKWLAWYQQKPGRAPKLLIYAASRLQSGVPSRFSGSGSGTDFTLTISSLRPEDFATYYCLQAHGFPWTFGQGTKVEIKR
B2: 61G5 (antibody, V domains shown)
VH: QVQLVQSGAEVKKPGASVKVSCKASGYTFTSYDINWVRQATGQGLEWMGWMNPNSGNSGSVKKFRDRVTMTRNTSISTAYMELSSLRSEDTAVYYCVRLIGYSSAWKWSFQHWGQGTLVTVSS
VL: DIQMTQSPSSLSASVGDRVTITCQASRDISKYLNWYQQKPGKAPKLQIYDASNLETGVPSRFSGSGSGTDFTFTISSLQPEDIATYYCQHYDNIPITFGQGTRLEIKR
B3: 57C10 (antibody, V domains shown)
VH: QVQLVQSGAEVKKPGASVKVSCKASGYTFTRYDINWVRQATGQGLEWMGWLNPNSGNTGQTQKFRGRVTMTRNTSINTAYMELSSLRSEDTAVYYCARGGYTSAWRWYFDLWGRGTLVTVSS
VL: DIQMTQSPSSLSASVGDRVTITCQASQDINNHLNWYQQKPGKAPKLLIYDVSNLETGVPSSFSGSGCGTDFTFTISSLQPEDIATYFCQQYDKLPLTFGGGTKVEIEG
B4: 63F8 (antibody, V domains shown)
VH: QVQLVQSGAEVKKPGASVKVSCKASGYTFTSYDINWVRQATGQGLEWMGRMNPKSGNAGYVQNFRGRVTMTRNTSISTAYMELSSLRSEDTAVYYCARGGRTSIWSFVFDYWGQGTLVTVSS
VL: B3 VL with N30S, N31K, V51T, S61R, C67S, F87N, E107K, G108R
B5: 61B12 (antibody, V domains shown)
VH: QVQLVQSGAEVTKPGASVKVSCKASGYTFTRYDINWVRQATGQGLEWMGWMNPNSGNSGSVQKFRGRVTMTRNTSITTVYMELSSLRSDDTAVYYCARGGISSSWHWAFDIWGQGTMVTVSS
VL: B3 VL with D50G, V51A, S52Y, N53T, S61R, C67S, F87Y, E107K, G108R
B6: 64D7 (antibody, V domains shown)
VH: QVQLVQSGAEVKKPGASVKVSCKASGYTFTSYDINWVRQATGQGLEWMGWMNPNRGNTGYVKKFQGRVTMTRNTSISTAYMELSSLRSEDTAVYYCARRRAVYRSSWEWYFDLWGRGTLVTVSS
VL: DTQMTQSPSSLSASEGDRVTITCQASQDIFNDLNWYQEKPGKAPKLLIYHASNLETGVPSRFSGSGSGTDYTFTISSLQPEDIATYYCQQYGNLPLTFGGGTKVEIKR
B7: 66B8 (antibody, V domains shown)
VH: QVQLVQSGAEVKKPGASVKVSCKASGYTFTGYYMHWVRQAPGQGLEWMGWFKPNSGVTNYAQKFQGRVTMSRDTSISTAYMELSSLRSDDTAVYYCARAGYSTSWKDWFDPWGQGTLVTVSS
VL: DIQMTQFPSSVSASVGDRVTITCRASQGISRWLAWYQQKQGKAPKLLIYMVSSLQSGVPSRFSGSGSGTDFTLTISSLQPEDFATYYCQQSHNFPITFGQGTRLDIKR
B8: 49A2 (antibody, V domains shown)
VH: EVQLVESGGGLVQPGGSLRLSCAASGFTFSSNWMSWVRQAPGKGLDWMASMKQDGSEIYYVDSVKGRFTISRDNAKNSLHLQMNSLRAEDTAVYYCVRGGWRFESWGQGALVTVSS
VL: EIVMTQSPATLSVSPGERATLSCRASQSVSSNLAWYQQKSGQAPRLLIYGASIRATGIPARVSGSGSGTEFTFTISSLQSEDFAVYYCQQYKNWPLTLGGGTKVEIKR
B9: 44A5 (antibody, V domains shown)
VH: EVQLLESGGGLVQPGGSLRLSCAASGFTFSTYAMNWVRQAPGKGLEWVSTVSGSGRPTYYADSVKGRFTISRDNSKNTLYLQMNSLRAEDTAVYYCAKAYYSNYLFDYWGQGTLVTVSS
VL: EIVMTQSPAILSVSPGERATLSCRASQSVSSNLAWYQQKPGQAPRLLIYGASTRATGVPARFSGGGSGTDFTLTISSLQSEDFAVYYCQHCKTWPPLTFGGGTKVDLKR
B10: 30H2 (antibody, V domains shown)
VH: EVQVLESGGGLVQPGESLRLSCTASGFTFNAYAMSWVRQAPGKGLEWVSTISGSGSTTYYADSVKGRFTISRDNSKNTLDLQMNSLRAADTAVYYCAKVAGSNFFFDHWGQGTLVTVSS
VL: EIVMTQSPATLSVSPGERATLSCRASQSINSNLAWYQQKPGQAPRLLIYGAYTRATGIPDRFSGSGSGTEFTLTISSLQSEDFAVYYCQEFIMWPPWTFGLGTQVEIKR
B11: 46H7 (antibody, V domains shown)
VH: EVQLLESGGGMVQPGGSLRLSCAVSGFTFSRYAMSWVRQAPGKGLEWVSEMRGSSGSTYYADSVKGRFTISRDNSKNTLYLQMNSLRVEDTAIYYCAKEFSSNSLFDYWGQGTLVTVSS
VL: B10 VL with I29V, Q42R, Y52S, D60A, E90Q, I92Y, M93N, L101Q, Q104K

target: T1, cyno TREM-1 on cells; test: cell-based or functional assay

Binder	Ab IC50-Cyno PBMC (Trial 1), TNFα release after cyno PGLYRP1/PGN	Ab IC50-Cyno PBMC (Trial 2), TNFα release after cyno PGLYRP1/PGN
B1	2000 pM	
B2		2340 pM
B3	154 pM	28.4 pM
B4	22.6 pM	16.1 pM
B5	46.9 pM	17.4 pM
B6	6940 pM	780 pM
B7	114 pM	23.2 pM
B8	732 pM	266 pM
B9	57.9 pM	9.1 pM
B10	3770 pM	
B11	95.1 pM	9.7 pM
